Assay results published in patent publication US20160017341A1.

Target: B-lymphocyte antigen CD20 (UniProt P11836)
Test: direct binding of I-125 labeled antibody

Chain of UniProt P11836 (P11836 whole entry): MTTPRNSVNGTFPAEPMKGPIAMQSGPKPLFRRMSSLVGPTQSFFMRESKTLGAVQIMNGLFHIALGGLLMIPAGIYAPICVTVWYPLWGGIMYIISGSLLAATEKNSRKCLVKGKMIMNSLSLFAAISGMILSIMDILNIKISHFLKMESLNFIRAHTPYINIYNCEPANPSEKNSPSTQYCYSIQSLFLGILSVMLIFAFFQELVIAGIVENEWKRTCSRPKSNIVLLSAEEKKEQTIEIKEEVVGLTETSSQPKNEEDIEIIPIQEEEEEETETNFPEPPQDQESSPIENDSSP

An apparent affinity constant (Kap) of 3.5 nM was found for anti-CD20 monoclonal antibody 2B8 in this work.
